Experiments:
[1] = Specific activity measurement of purified isoprene synthase variants (4 mM DMAPP, 30 C, GC-MS headspace); assay type: biochemical; conditions: 50 mM NaCl, 50 mM Tris pH = 8, 30° C.
Outline: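 Ni-affinity-purified, buffer-exchanged enzyme incubated with 4 mM DMAPP and 50 mM MgCl2 in 50 mM Tris, 50 mM NaCl, pH 8, for 15 min at 30 C in sealed vials; stopped with EDTA. Headspace isoprene quantified by GC-MS, in triplicate; protein concentration from A280 with calculated extinction coefficient.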

[2] = kcat, KM and Ki determination, rate vs [DMAPP], fit to uncompetitive substrate inhibition; assay type: biochemical
Protocol: 10 uL of purified enzyme was incubated with DMAPP at concentrations ranging from 1.25 to 20 mM DMAPP in a buffer containing 50 mM Tris, 50 mM MgCl2 and 50 mM NaCl (pH=8) to a final volume of 100 uL for 15 min. at 30 C in gas tight 2 mL vials. Reactions were terminated with the addition of 100 uL of 250 mM EDTA, pH=8. Samples were analyzed by GC-MS to determine the concentration of isoprene in the headspace of the vials. Data were analyzed using Kaleidagraph and fit to following equation for uncompetitive substrate inhibition: rate/E=kcat*S/(KM+S*(1+S/Ki)). All kinetic assays were performed in triplicate.
Protein concentration was determined by measuring the absorbance of each protein solution at 280 nm on a Helwlett Pachard 8453 UV-Vis spectrophotometer and converting the absorbance to protein concentration using the extinction coefficient as determined on the Expasy website (Gasteiger E., Hoogland C., Gattiker A., Duvaud S., Wilkins M. R., Appel R. D., Bairoch A.; Protein Identification and Analysis Tools on the ExPASy Server; (In) John M. Walker (ed): The Proteomics Protocols Handbook, Humana Press (2005). pp. 571-607). The protein concentrations of isoprene synthase variants assayed for KM and kcat determination were verified by comparative gel electrophoresis of a dilution series of each protein (FIG. 61).

[3] = Differential scanning calorimetry, thermal midpoint (Tm); assay type: physicochemical
Protocol: Excessive heat capacity curves were measured using an ultrasensitive scanning high-throughput microcalorimeter, VP-Cap DSC (MicroCal, Inc., Northampton, Mass.). The standard procedure for Differential Scanning calorimetry (DSC) measurements and the theory of the technique is previously published (Freire, E. (1995) Differential Scanning calorimetry Methods. Mol. Biol. 41, 191-218). Approximately 500 μL of 0.5 mg/ml IspS (from strain MD09-167) or variant IspS-L494P (from strain DW399) and IspS-T536F (from strain DW363) (in the absence or presence of 5 mM sodium pyrophosphate) were scanned over a 30-100° C. temperature range. The same sample was then re-scanned to check the reversibility of the process. For IspS the thermal unfolding process was irreversible. The buffer used was 50 mM HEPES, 5 mM MgCl2, pH 7.4, with and without 5 mM sodium pyrophosphate. Sodium pyrophosphate was included for its ability to function as a substrate analog. A 200° C./hr scan rate was used to minimize any artifacts that may result from aggregation. The thermal midpoint (Tm) of the DSC curves was used as an indicator of the thermal stability. The thermal melting curves and the melting points for the wild type IspS and variants are shown in FIG. 56 (buffer only) and 57 (with 5 mM sodium pyrophosphate).

B1: wild type IspS: P. alba MEA (+) TEV isoprene synthase, MD09-163, strain MD09-167, SEQ ID NO: 63 (protein)
chain: MEARRSANYEPNSWDYDYLLSSDTDESIEVYKDKAKKLEAEVRREINNEKAEFLTLLELIDNVQRLGLGYRFESDIRGALDRFVSSGGFDAVTKTSLHGTALSFRLLRQHGFEVSQEAFSGFKDQNGNFLENLKEDIKAILSLYEASFLALEGENILDEAKVFAISHLKELSEEKIGKELAEQVNHALELPLHRRTQRLEAVWSIEAYRKKEDANQVLLELAILDYNMIQSVYQRDLRETSRWWRRVGLATKLHFARDRLIESFYWAVGVAFEPQYSDCRNSVAKMFSFVTIIDDIYDVYGTLDELELFTDAVERWDVNAINDLPDYMKLCFLALYNTINEIAYDNLKDKGENILPYLTKAWADLCNAFLQEAKWLYNKSTPTFDDYFGNAWKSSSGPLQLVFAYFAVVQNIKKEEIENLQKYHDTISRPSHIFRLCNDLASASAEIARGETANSVSCYMRTKGISEELATESVMNLIDETWKKMNKEKLGGSLFAKPFVETAINLARQSHCTYHNGDAHTSPDELTRKRVLSVITEPILPFERENLYFQGLEHHHHHH
modifications: TEV site
- S.A. [1]: 480 ± 20 nmol/mg/min
- Variant S.A./WT S.A. ([1]; ratio to WT): 1.0
- rate profile vs [DMAPP] ([2]; 1.25 to 20 mM DMAPP, 30 C): uncompetitive substrate inhibition by DMAPP
- Km ([2]; 1.25 to 20 mM DMAPP, 30 C, average of three trials ± one standard deviation): 7 ± 4 mM
- kcat ([2]; 1.25 to 20 mM DMAPP, 30 C, average of three trials ± one standard deviation, in s^-1 (unit assumed)): 1.5 ± 0.6
- Ki ([2]; uncompetitive substrate inhibition by DMAPP, average of three trials ± one standard deviation, read-out: KiDMAPP): 16 ± 9 mM
- thermal melting point (Tm) ([3]; buffer alone (50 mM HEPES, 5 mM MgCl2, pH 7.4)): 58.3 °C
- thermal melting point (Tm) ([3]; in the presence of 5 mM sodium pyrophosphate): 54.7 °C
- reversibility of the thermal unfolding process ([3]; re-scan of the same sample): irreversible

Reference: patent US9175313B2, “Three-dimensional structure of isoprene synthase and its use thereof for generating variants” (Danisco US Inc., priority 2009, dated 2015)
